Experimental data from patent US20170015742A1 (published 2017).
Positions count from the first letter of the chain named. In names and notes the source's numbering stands. Each block holds one binder with its values, some of them ahead of it.

Key:
[1] = molecular target: T1, VEGF-A (human, UniProt P15692 207-395); assay: Biacore SPR; DVD-Ig captured on anti-human Fc, antigen injected
T1 construct: also called hVEGF165
Procedure: (§1) For example, approximately 9000 RU of goat anti-human Fc specific polyclonal antibody (Thermo Fisher Scientific Inc., Rockford, Ill.) diluted in 10 mM sodium acetate (pH 4.5) is directly immobilized across a CM5 research grade biosensor chip using a standard amine coupling kit according to manufacturer's instructions and procedures at 25 μg/ml. Unreacted moieties on the biosensor surface were blocked with ethanolamine. For kinetic analysis, rate equations derived from the 1:1 Langmuir binding model were fitted simultaneously to multiple antigen injections (using global fit analysis) with the use of Scrubber 2 (BioLogic Software), Biacore Biaevaluation 4.0.1 software or Biacore T100 Evaluation software. Purified antibodies or DVD-Ig molecules were diluted in running buffer for capture across goat anti-human Fc reaction surfaces. Antibodies or DVD-Ig molecules to be captured as a ligand (1 μg/ml) were injected over reaction matrices at a flow rate of 10 μl/minute. During the assay, all measurements were referenced against the capture surface alone (i.e., with no captured antibody or DVD-Ig molecule). […] The equilibrium dissociation constant KD (M) of the reaction between antibodies and the target antigen was then calculated from the kinetic rate constants by the following formula: KD=Koff/Kₒₙ. Binding was recorded as a function of time and kinetic rate constants were calculated.

[2] = molecular target: T2, PDGF-BB (human, UniProt P01127 82-190, limits assumed); assay: as above
T2 construct: also called human PDGF-BB; hPDGF-BB
Procedure: as §1

T1 sequence (P15692 other isoform, or with tags, fused parts or gaps limits assumed): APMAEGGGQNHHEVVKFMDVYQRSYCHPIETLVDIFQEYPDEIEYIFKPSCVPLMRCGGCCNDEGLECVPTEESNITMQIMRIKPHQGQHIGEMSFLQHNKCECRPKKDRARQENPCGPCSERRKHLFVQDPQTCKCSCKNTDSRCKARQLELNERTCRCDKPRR
T2 sequence (P01127 82-190 limits assumed): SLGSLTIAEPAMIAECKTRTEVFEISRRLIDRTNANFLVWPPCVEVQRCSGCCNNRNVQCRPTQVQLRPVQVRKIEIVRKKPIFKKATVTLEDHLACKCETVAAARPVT

B1: 9A8.12-LS-9E8.4E (PR-1577547) (bispecific antibody, human IgG1, kappa, L234A L235A)
heavy: EVQLVQSGAEVKKPGASVKVSCKASGYTFTNYGMYWVRQAPGQGLEWMGWINTETGKPIYADDFKGRVTMTTDTSTSTAYMELRSLRSDDTAVYYCARVDYDGSFWFAYWGQGTLVTVSSASTKGPSVFPLAPEVTLRESGPALVKPTQTLTLTCTFSGFSLSTYGMGVGWIRQPPGKALEWLANIWWDDDKYYNPSLKNRLTISKDTSKNQVVLTMTNMDPVDTATYYCARIESIGTTYSFDYWGQGTMVTVSSASTKGPSVFPLAPSSKSTSGGTAALGCLVKDYFPEPVTVSWNSGALTSGVHTFPAVLQSSGLYSLSSVVTVPSSSLGTQTYICNVNHKPSNTKVDKKVEPKSCDKTHTCPPCPAPEAAGGPSVFLFPPKPKDTLMISRTPEVTCVVVDVSHEDPEVKFNWYVDGVEVHNAKTKPREEQYNSTYRVVSVLTVLHQDWLNGKEYKCKVSNKALPAPIEKTISKAKGQPREPQVYTLPPSREEMTKNQVSLTCLVKGFYPSDIAVEWESNGQPENNYKTTPPVLDSDGSFFLYSKLTVDKSRWQQGNVFSCSVMHEALHNAYTQKSLSLSPGK
light: DTQLTQSPSSLSASVGDRVTITCRASESVSTVIHWYQQKPGKQPKLLIHGASNLESGVPSRFSGSGSGTDFTLTISSLQPEDFATYFCQQHWNDPPTFGQGTKLEIKRTVAAPEFVLTQSPGTLSLSPGERATLSCERSSGDIGESYVSWYQQKPGQAPRLVIYADDQRPSGIPDRFSGSGSGTDFTLTISRLEPEDFAVYYCQSYDINIDIVFGGGTKVEIKRTVAAPSVFIFPPSDEQLKSGTASVVCLLNNFYPREAKVQWKVDNALQSGNSQESVTEQDSKDSTYSLSSTLTLSKADYEKHKVYACEVTHQGLSSPVTKSFNRGEC
notes: DVD-Ig: outer hBEW-9A8.12 (VEGF), inner hBDI-9E8.4E (PDGF), linkers HG-long/LK-short; Human IgG1 L234A, L235A, H435A with kappa
Kd [1]: 350 pM | kon [1]: 270000 M⁻¹ s⁻¹ | Kd [2]: 6.5 pM | kon [2]: 3.6e+07 M⁻¹ s⁻¹

B2: 9E8.4E-SL-9A8.12 (PR-1577548) (bispecific antibody, human IgG1, kappa, L234A L235A)
heavy: EVTLRESGPALVKPTQTLTLTCTFSGFSLSTYGMGVGWIRQPPGKALEWLANIWWDDDKYYNPSLKNRLTISKDTSKNQVVLTMTNMDPVDTATYYCARIESIGTTYSFDYWGQGTMVTVSSASTKGPEVQLVQSGAEVKKPGASVKVSCKASGYTFTNYGMYWVRQAPGQGLEWMGWINTETGKPIYADDFKGRVTMTTDTSTSTAYMELRSLRSDDTAVYYCARVDYDGSFWFAYWGQGTLVTVSSASTKGPSVFPLAPSSKSTSGGTAALGCLVKDYFPEPVTVSWNSGALTSGVHTFPAVLQSSGLYSLSSVVTVPSSSLGTQTYICNVNHKPSNTKVDKKVEPKSCDKTHTCPPCPAPEAAGGPSVFLFPPKPKDTLMISRTPEVTCVVVDVSHEDPEVKFNWYVDGVEVHNAKTKPREEQYNSTYRVVSVLTVLHQDWLNGKEYKCKVSNKALPAPIEKTISKAKGQPREPQVYTLPPSREEMTKNQVSLTCLVKGFYPSDIAVEWESNGQPENNYKTTPPVLDSDGSFFLYSKLTVDKSRWQQGNVFSCSVMHEALHNAYTQKSLSLSPGK
light: EFVLTQSPGTLSLSPGERATLSCERSSGDIGESYVSWYQQKPGQAPRLVIYADDQRPSGIPDRFSGSGSGTDFTLTISRLEPEDFAVYYCQSYDINIDIVFGGGTKVEIKRTVAAPSVFIFPPDTQLTQSPSSLSASVGDRVTITCRASESVSTVIHWYQQKPGKQPKLLIHGASNLESGVPSRFSGSGSGTDFTLTISSLQPEDFATYFCQQHWNDPPTFGQGTKLEIKRTVAAPSVFIFPPSDEQLKSGTASVVCLLNNFYPREAKVQWKVDNALQSGNSQESVTEQDSKDSTYSLSSTLTLSKADYEKHKVYACEVTHQGLSSPVTKSFNRGEC
notes: DVD-Ig: outer hBDI-9E8.4E (PDGF), inner hBEW-9A8.12 (VEGF), linkers HG-short/LK-long; Human IgG1 L234A, L235A, H435A with kappa
Kd [1]: 160 pM | kon [1]: 2.2e+06 M⁻¹ s⁻¹ | Kd [2]: 6.4 pM | kon [2]: 5e+07 M⁻¹ s⁻¹

B5: 9E8.4E-LS-9A8.12 (PR-1577550) (bispecific antibody, human IgG1, kappa, L234A L235A)
heavy: EVTLRESGPALVKPTQTLTLTCTFSGFSLSTYGMGVGWIRQPPGKALEWLANIWWDDDKYYNPSLKNRLTISKDTSKNQVVLTMTNMDPVDTATYYCARIESIGTTYSFDYWGQGTMVTVSSASTKGPSVFPLAPEVQLVQSGAEVKKPGASVKVSCKASGYTFTNYGMYWVRQAPGQGLEWMGWINTETGKPIYADDFKGRVTMTTDTSTSTAYMELRSLRSDDTAVYYCARVDYDGSFWFAYWGQGTLVTVSSASTKGPSVFPLAPSSKSTSGGTAALGCLVKDYFPEPVTVSWNSGALTSGVHTFPAVLQSSGLYSLSSVVTVPSSSLGTQTYICNVNHKPSNTKVDKKVEPKSCDKTHTCPPCPAPEAAGGPSVFLFPPKPKDTLMISRTPEVTCVVVDVSHEDPEVKFNWYVDGVEVHNAKTKPREEQYNSTYRVVSVLTVLHQDWLNGKEYKCKVSNKALPAPIEKTISKAKGQPREPQVYTLPPSREEMTKNQVSLTCLVKGFYPSDIAVEWESNGQPENNYKTTPPVLDSDGSFFLYSKLTVDKSRWQQGNVFSCSVMHEALHNAYTQKSLSLSPGK
light: EFVLTQSPGTLSLSPGERATLSCERSSGDIGESYVSWYQQKPGQAPRLVIYADDQRPSGIPDRFSGSGSGTDFTLTISRLEPEDFAVYYCQSYDINIDIVFGGGTKVEIKRTVAAPDTQLTQSPSSLSASVGDRVTITCRASESVSTVIHWYQQKPGKQPKLLIHGASNLESGVPSRFSGSGSGTDFTLTISSLQPEDFATYFCQQHWNDPPTFGQGTKLEIKRTVAAPSVFIFPPSDEQLKSGTASVVCLLNNFYPREAKVQWKVDNALQSGNSQESVTEQDSKDSTYSLSSTLTLSKADYEKHKVYACEVTHQGLSSPVTKSFNRGEC
notes: DVD-Ig: outer hBDI-9E8.4E (PDGF), inner hBEW-9A8.12 (VEGF), linkers HG-long/LK-short; Human IgG1 L234A, L235A, H435A with kappa
Kd [1]: 230 pM | kon [1]: 640000 M⁻¹ s⁻¹ | Kd [2]: 5 pM | kon [2]: 5e+07 M⁻¹ s⁻¹

B6: 9E8.4E-GS-9A8.12 (PR-1578137) (bispecific antibody, human IgG1, kappa, L234A L235A)
heavy: EVTLRESGPALVKPTQTLTLTCTFSGFSLSTYGMGVGWIRQPPGKALEWLANIWWDDDKYYNPSLKNRLTISKDTSKNQVVLTMTNMDPVDTATYYCARIESIGTTYSFDYWGQGTMVTVSSGGGGSGGGGSEVQLVQSGAEVKKPGASVKVSCKASGYTFTNYGMYWVRQAPGQGLEWMGWINTETGKPIYADDFKGRVTMTTDTSTSTAYMELRSLRSDDTAVYYCARVDYDGSFWFAYWGQGTLVTVSSASTKGPSVFPLAPSSKSTSGGTAALGCLVKDYFPEPVTVSWNSGALTSGVHTFPAVLQSSGLYSLSSVVTVPSSSLGTQTYICNVNHKPSNTKVDKKVEPKSCDKTHTCPPCPAPEAAGGPSVFLFPPKPKDTLMISRTPEVTCVVVDVSHEDPEVKFNWYVDGVEVHNAKTKPREEQYNSTYRVVSVLTVLHQDWLNGKEYKCKVSNKALPAPIEKTISKAKGQPREPQVYTLPPSREEMTKNQVSLTCLVKGFYPSDIAVEWESNGQPENNYKTTPPVLDSDGSFFLYSKLTVDKSRWQQGNVFSCSVMHEALHNAYTQKSLSLSPGK
light: EFVLTQSPGTLSLSPGERATLSCERSSGDIGESYVSWYQQKPGQAPRLVIYADDQRPSGIPDRFSGSGSGTDFTLTISRLEPEDFAVYYCQSYDINIDIVFGGGTKVEIKRGGSGGGGSGDTQLTQSPSSLSASVGDRVTITCRASESVSTVIHWYQQKPGKQPKLLIHGASNLESGVPSRFSGSGSGTDFTLTISSLQPEDFATYFCQQHWNDPPTFGQGTKLEIKRTVAAPSVFIFPPSDEQLKSGTASVVCLLNNFYPREAKVQWKVDNALQSGNSQESVTEQDSKDSTYSLSSTLTLSKADYEKHKVYACEVTHQGLSSPVTKSFNRGEC
notes: DVD-Ig: outer hBDI-9E8.4E (PDGF), inner hBEW-9A8.12 (VEGF), linkers GS-H10/GS-L10; Human IgG1 L234A, L235A, H435A with kappa
Kd [1]: 380 pM | kon [1]: 470000 M⁻¹ s⁻¹ | Kd [2]: 8.8 pM | kon [2]: 5e+07 M⁻¹ s⁻¹

The next binders have a lower Kd [1] than those just listed; values first:

Kd [1]: 1.7 pM | kon [1]: 1.2e+07 M⁻¹ s⁻¹ | Kd [2]: 0.19 pM | kon [2]: 6e+07 M⁻¹ s⁻¹
B3: CL-34565_GS_CL-33675 (PR-1613183) (bispecific antibody, human IgG1, kappa, L234A L235A)
heavy: EVQLVQSGSELKKPGASVKVSCKASGYTFTDYGMYWVRQAPGQGLEWMGWIDTETGDPTYADDFKGRFVFSLDTSVSTAYLQISSLKAEDTAVYYCARTNYYYRNYMFYFDYWGQGTMVTVSSGGGGSGGGGSEVTLRESGPALVKPTQTLTLTCTFSGFSLSTYGMGVGWIRQPPGKALEWLANIWWDDDKYYNPSLKNRLTISKDTSKNQVVLTMTNMDPVDTATYYCARIESSGPKYSFDYWGQGTMVTVSSASTKGPSVFPLAPSSKSTSGGTAALGCLVKDYFPEPVTVSWNSGALTSGVHTFPAVLQSSGLYSLSSVVTVPSSSLGTQTYICNVNHKPSNTKVDKKVEPKSCDKTHTCPPCPAPEAAGGPSVFLFPPKPKDTLMISRTPEVTCVVVDVSHEDPEVKFNWYVDGVEVHNAKTKPREEQYNSTYRVVSVLTVLHQDWLNGKEYKCKVSNKALPAPIEKTISKAKGQPREPQVYTLPPSREEMTKNQVSLTCLVKGFYPSDIAVEWESNGQPENNYKTTPPVLDSDGSFFLYSKLTVDKSRWQQGNVFSCSVMHEALHNAYTQKSLSLSPGK
light: EIVLTQSPATLSLSPGERATLFCRASQSVSNHMHWYQQKPGQAPRLLIYGASILESGVPARFSGSGSGTDFTLTISSLEPEDFAVYYCQQSWYDPITFGQGTKLEIKGGSGGGGSGGEIVLTQSPGTLSLSPGERATLSCRASSGSIWYSFVSWYQQKPGQAPRLLIYADDQRASGIPDRFSGSGSGTDFTLTISRLEPEDFAVYYCQSYGINIDVVFGGGTKVEIKRTVAAPSVFIFPPSDEQLKSGTASVVCLLNNFYPREAKVQWKVDNALQSGNSQESVTEQDSKDSTYSLSSTLTLSKADYEKHKVYACEVTHQGLSSPVTKSFNRGEC
notes: DVD-Ig: outer CL-34565 (VEGF), inner CL-33675 (PDGF), linkers GS-H10/GS-L10(dR); Human IgG1 L234A, L235A, H435A with kappa

Kd [1]: 1.1 pM | kon [1]: 1.5e+07 M⁻¹ s⁻¹ | Kd [2]: 5.4 pM | kon [2]: 3.5e+07 M⁻¹ s⁻¹
B4: CL-34565_GS_9E8.4 (PR-1613184) (bispecific antibody, human IgG1, kappa, L234A L235A)
heavy: B3 heavy with S236I, P238T, K239T
light: EIVLTQSPATLSLSPGERATLFCRASQSVSNHMHWYQQKPGQAPRLLIYGASILESGVPARFSGSGSGTDFTLTISSLEPEDFAVYYCQQSWYDPITFGQGTKLEIKGGSGGGGSGGEFVLTQSPGTLSLSPGERATLSCERSSGDIGDSYVSWYQQKPGQAPRLVIYADDQRPSGIPDRFSGSGSGTDFTLTISRLEPEDFAVYYCQSYDINIDIVFGGGTKVEIKRTVAAPSVFIFPPSDEQLKSGTASVVCLLNNFYPREAKVQWKVDNALQSGNSQESVTEQDSKDSTYSLSSTLTLSKADYEKHKVYACEVTHQGLSSPVTKSFNRGEC
notes: DVD-Ig: outer CL-34565 (VEGF), inner hBDI-9E8.4 (PDGF), linkers GS-H10/GS-L10(dR); Human IgG1 L234A, L235A, H435A with kappa
